# According to the RNAGym collection of RNA variant scans (doi:10.7554/elife.80360):
# B1: Hairpin Ribozyme (parent)
# chain: GUCCUCUUUCACGUGCGCGUGAAAGAGAGAAGUGAACCAGAGAAACACACGUUGUGGUAUAUUACCUGGUA
# Variants of: B1
# Assay: self-cleavage, relative activity (ratio to wild type); higher = more cleavage; co-transcriptional
row,Variant,self-cleavage
1,G13U U70C,0.784
2,G13U U70G,0.78
3,U14A A24G,0.938
4,U14A A26G,0.575
5,U14A A28U,0.574
6,U14A A31C,0.391
7,U14A A31G,0.52
8,U14A A43G,0.147
9,U14A A44C,0.14
10,U14A A44G,0.189
11,U14A A45C,0.21
12,U14A A45U,0.116
13,U14A A59U,0.28
14,U14A A61G,0.101
15,U14A A61U,0.266
16,U14A C16A,0.849
17,U14A C16G,0.594
18,U14A C16U,0.813
19,U14A C18A,0.888
20,U14A C18G,0.636
21,U14A C37A,0.378
22,U14A C38U,0.478
23,U14A C50G,0.279
24,U14A C65A,0.958

row,Variant,self-cleavage
1,U14A C66U,0.335
2,U14A G21A,0.936
3,U14A G21U,0.795
4,U14A G29C,0.168
5,U14A G29U,0.206
6,U14A G32C,0.157
7,U14A G34A,1.31
8,U14A G34C,1.19
9,U14A G40A,0.317
10,U14A G40C,0.187
11,U14A G40U,0.127
12,U14A G57A,0.139
13,U14A G69A,0.219
14,U14A U33A,0.137
15,U14A U33C,0.153
16,U14A U33G,0.207
17,U14A U52C,0.788
18,U14A U52G,0.494
19,U14A U53A,1.12
20,U14A U60G,0.614
21,U14A U63G,0.0901
22,U14A U70C,1.01
23,U14A U70G,0.714
24,U14C A22C,0.832

row,Variant,self-cleavage
1,U14C A22U,1.06
2,U14C A23G,0.841
3,U14C A28C,0.565
4,U14C A31C,0.0434
5,U14C A31U,0.0592
6,U14C A35G,0.953
7,U14C A35U,0.713
8,U14C A39C,0.475
9,U14C A39G,0.243
10,U14C A43C,0.114
11,U14C A43G,0.147
12,U14C A43U,0.094
13,U14C A44G,0.155
14,U14C A47C,0.484
15,U14C A47U,0.112
16,U14C A49C,0.162
17,U14C A49U,0.134
18,U14C A59G,0.0434
19,U14C A59U,0.081
20,U14C A71U,0.87
21,U14C C16U,0.728
22,U14C C18A,0.933
23,U14C C18U,0.868
24,U14C C37U,0.376

row,Variant,self-cleavage
1,U14C C38A,0.0751
2,U14C C46A,0.174
3,U14C C46G,0.0498
4,U14C C46U,0.078
5,U14C C48G,0.26
6,U14C C50G,0.268
7,U14C C65A,0.93
8,U14C C65G,0.214
9,U14C C66G,0.337
10,U14C C66U,0.408
11,U14C G15A,0.825
12,U14C G15C,0.932
13,U14C G15U,0.926
14,U14C G17A,0.861
15,U14C G17U,1.24
16,U14C G19C,0.79
17,U14C G19U,0.88
18,U14C G21U,0.702
19,U14C G27U,0.102
20,U14C G29C,0.17
21,U14C G32A,0.0498
22,U14C G42A,0.154
23,U14C G42C,0.403
24,U14C G42U,0.365

row,Variant,self-cleavage
1,U14C G57U,0.265
2,U14C G68C,0.212
3,U14C G69U,0.3
4,U14C U20A,0.774
5,U14C U20C,1.03
6,U14C U20G,1.09
7,U14C U33A,0.0608
8,U14C U52A,1.03
9,U14C U52G,0.512
10,U14C U55A,0.271
11,U14C U55C,0.483
12,U14C U55G,0.352
13,U14C U58A,0.763
14,U14C U58C,0.78
15,U14C U60A,0.795
16,U14C U63A,0
17,U14C U63C,0.392
18,U14C U70A,0.814
19,U14G A24U,0.653
20,U14G A30C,0.129
21,U14G A31G,0.693
22,U14G A36U,0.311
23,U14G A39G,0.227
24,U14G A41C,0.698

row,Variant,self-cleavage
1,U14G A43C,0.0921
2,U14G A44C,0.218
3,U14G A44G,0.0802
4,U14G A45C,0.243
5,U14G A47C,0.218
6,U14G A49G,0.386
7,U14G A64U,0.07
8,U14G A71C,1.11
9,U14G A71G,0.883
10,U14G C16A,0.681
11,U14G C37U,0.547
12,U14G C38A,0.17
13,U14G C38U,0.345
14,U14G C48U,0.0482
15,U14G C65A,1.05
16,U14G C66G,0.173
17,U14G C66U,0.217
18,U14G G15U,0.796
19,U14G G17C,0.415
20,U14G G17U,0.513
21,U14G G19U,0.893
22,U14G G21A,0.686
23,U14G G21C,0.342
24,U14G G25A,0.384

row,Variant,self-cleavage
1,U14G G27C,0.0943
2,U14G G34U,1.11
3,U14G G42U,0.163
4,U14G G51A,0.989
5,U14G G56U,0.122
6,U14G G57A,0.146
7,U14G G68C,0.0739
8,U14G G69U,0.2
9,U14G U20G,0.736
10,U14G U53G,0.287
11,U14G U58C,0.881
12,U14G U60A,0.641
13,U14G U60G,0.58
14,U14G U62A,0.209
15,U14G U63C,0.175
16,U14G U63G,0.153
17,G15A A22C,0.821
18,G15A A22G,1.11
19,G15A A22U,0.699
20,G15A A23U,0.846
21,G15A A26G,0.835
22,G15A A26U,0.638
23,G15A A30C,0.141
